Results from IntAct's records for PubMed 19412162.

B1: F-box only protein 31 (Homo sapiens), Q5XUX0 (parent)
chain: MAVCARLCGVGPSRGCRRRQQRRGPAETAAADSEPDTDPEEERIEASAGVGGGLCAGPSPPPPRCSLLELPPELLVEIFASLPGTDLPSLAQVCTKFRRILHTDTIWRRRCREEYGVCENLRKLEITGVSCRDVYAKLLHRYRHILGLWQPDIGPYGGLLNVVVDGLFIIGWMYLPPHDPHVDDPMRFKPLFRIHLMERKAATVECMYGHKGPHHGHIQIVKKDEFSTKCNQTDHHRMSGGRQEEFRTWLREEWGRTLEDIFHEHMQELILMKFIYTSQYDNCLTYRRIYLPPSRPDDLIKPGLFKGTYGSHGLEIVMLSFHGRRARGTKITGDPNIPAGQQTVEIDLRHRIQLPDLENQRNFNELSRIVLEVRERVRQEQQEGGHEAGEGRGRQGPRESQPSPAQPRAEAPSKGPDGTPGEDGGEPGDAVAAAEQPAQCGQGQPFVLPVGVSSRNEDYPRTCRMCFYGTGLIAGHGFTSPERTPGVFILFDEDRFGFVWLELKSFSLYSRVQATFRNADAPSPQAFDEMLKNIQSLTS

Variants of: B1
Conditions: with atm_human ATM

Variant	effect of a mutation on the interaction
S278A	disrupting interaction
S400A	disrupting interaction
